Patent US20220048967A1 (published 2022)
Positions count from the first letter of the chain named. Numbered stars: 1 amine (or outer) side, 2 acyl side, 3 side chain; on linkers, the order of the positions; unused ones are H or OH. Square brackets hold non-standard residues; d marks the D form. Side chains are listed from the residue outwards. Ends that are not written are not given here. * marks the point of attachment. C20 diacid = O=C(O)CCCCCCCCCCCCCCCCCCC(=O)*; C18 diacid = O=C(O)CCCCCCCCCCCCCCCCC(=O)*; γGlu = O=C(O)[C@H](CCC(=O)[*:2])N[*:1]; αMeF = C[C@](N)(Cc1ccccc1)C(=O)O; αMeK = C[C@](N)(CCCCN)C(=O)O; Dab = NCC[C@H](N)C(=O)O; AEEA = NCCOCCOCC(=O)O; Aib = CC(C)(N)C(=O)O

T1: human GIP receptor (human, UniProt P48546 22-466)
T1 sequence (looked up): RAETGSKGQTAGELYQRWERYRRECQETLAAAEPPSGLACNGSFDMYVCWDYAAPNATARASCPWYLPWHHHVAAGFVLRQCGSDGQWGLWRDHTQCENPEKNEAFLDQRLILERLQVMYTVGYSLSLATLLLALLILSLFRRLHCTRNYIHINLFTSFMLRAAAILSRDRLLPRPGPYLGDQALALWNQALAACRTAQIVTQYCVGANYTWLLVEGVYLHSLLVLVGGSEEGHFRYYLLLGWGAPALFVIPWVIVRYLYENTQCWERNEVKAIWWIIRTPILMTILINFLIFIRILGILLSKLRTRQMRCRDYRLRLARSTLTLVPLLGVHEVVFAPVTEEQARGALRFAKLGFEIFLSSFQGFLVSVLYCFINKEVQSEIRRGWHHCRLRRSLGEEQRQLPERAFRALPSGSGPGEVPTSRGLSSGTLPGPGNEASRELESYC

B1: Example 298 (peptide)
peptide: Y[Aib]EGTFTSDYSILLDKK([AEEA-AEEA-γGlu-C18 diacid])AQ[Aib]AFVEYLIEGGPSSG-NH2
modifications: N-terminus assumed
SMILES: CC[C@H](C)[C@H](NC(=O)[C@H](CC(C)C)NC(=O)[C@H](Cc1ccc(O)cc1)NC(=O)[C@H](CCC(=O)O)NC(=O)[C@@H](NC(=O)[C@H](Cc1ccccc1)NC(=O)[C@H](C)NC(=O)C(C)(C)NC(=O)[C@H](CCC(N)=O)NC(=O)[C@H](C)NC(=O)[C@H](CCCCNC(=O)COCCOCCNC(=O)COCCOCCNC(=O)CC[C@H](NC(=O)CCCCCCCCCCCCCCCCC(=O)O)C(=O)O)NC(=O)[C@H](CCCCN)NC(=O)[C@H](CC(=O)O)NC(=O)[C@H](CC(C)C)NC(=O)[C@H](CC(C)C)NC(=O)[C@@H](NC(=O)[C@H](CO)NC(=O)[C@H](Cc1ccc(O)cc1)NC(=O)[C@H](CC(=O)O)NC(=O)[C@H](CO)NC(=O)[C@@H](NC(=O)[C@H](Cc1ccccc1)NC(=O)[C@@H](NC(=O)CNC(=O)[C@H](CCC(=O)O)NC(=O)C(C)(C)NC(=O)[C@@H](N)Cc1ccc(O)cc1)[C@@H](C)O)[C@@H](C)O)[C@@H](C)CC)C(C)C)C(=O)N[C@@H](CCC(=O)O)C(=O)NCC(=O)NCC(=O)N1CCC[C@H]1C(=O)N[C@@H](CO)C(=O)N[C@@H](CO)C(=O)NCC(N)=O
B2: Example 13 (peptide)
peptide: Y[Aib]EGTFTSDYSILLD[Aib]IAQK([AEEA-AEEA-γGlu-C20 diacid])AFIEYLIEGGPSSGAPPPS-NH2
modifications: N-terminus assumed
SMILES: CC[C@H](C)[C@H](NC(=O)[C@H](CC(C)C)NC(=O)[C@H](Cc1ccc(O)cc1)NC(=O)[C@H](CCC(=O)O)NC(=O)[C@@H](NC(=O)[C@H](Cc1ccccc1)NC(=O)[C@H](C)NC(=O)[C@H](CCCCNC(=O)COCCOCCNC(=O)COCCOCCNC(=O)CC[C@H](NC(=O)CCCCCCCCCCCCCCCCCCC(=O)O)C(=O)O)NC(=O)[C@H](CCC(N)=O)NC(=O)[C@H](C)NC(=O)[C@@H](NC(=O)C(C)(C)NC(=O)[C@H](CC(=O)O)NC(=O)[C@H](CC(C)C)NC(=O)[C@H](CC(C)C)NC(=O)[C@@H](NC(=O)[C@H](CO)NC(=O)[C@H](Cc1ccc(O)cc1)NC(=O)[C@H](CC(=O)O)NC(=O)[C@H](CO)NC(=O)[C@@H](NC(=O)[C@H](Cc1ccccc1)NC(=O)[C@@H](NC(=O)CNC(=O)[C@H](CCC(=O)O)NC(=O)C(C)(C)NC(=O)[C@@H](N)Cc1ccc(O)cc1)[C@@H](C)O)[C@@H](C)O)[C@@H](C)CC)[C@@H](C)CC)[C@@H](C)CC)C(=O)N[C@@H](CCC(=O)O)C(=O)NCC(=O)NCC(=O)N1CCC[C@H]1C(=O)N[C@@H](CO)C(=O)N[C@@H](CO)C(=O)NCC(=O)N[C@@H](C)C(=O)N1CCC[C@H]1C(=O)N1CCC[C@H]1C(=O)N1CCC[C@H]1C(=O)N[C@@H](CO)C(N)=O
B3: Example 18 (peptide)
peptide: H[Aib]EGTFTSDYSI[αMeF]LDKK([Dab-AEEA-Dab-AEEA-C20 diacid])AQ[αMeK]AFIQYLLA[Aib]GPSSGAPKPS-NH2
B4: Example 19 (peptide)
peptide: H[Aib]EGTFTSDYSI[αMeF]LDKK([Dab-AEEA-Dab-AEEA-C20 diacid])AQ[αMeK]AFIQYLLA[Aib]GPSSGAPPPS-NH2
B5: Example 3 (peptide)
peptide: YXEGTXTSDYSIXLDXKAQXEFIXYLIEGGPSSGAPPPS
modifications: Aib2, αMeF(2F)6, αMeL13, Orn16, K17 conjugated to (2-[2-(2-Amino-ethoxy)-ethoxy]-acetyl)2-(γ-Glu)-CO-(CH2)18-CO2H, Aib20, D-Glu24, C-terminal amide (NH2)
B6: Example 5 (peptide)
peptide: B5 peptide with Y10V, Y25X
modifications: Aib2, αMeF(2F)6, αMeL13, Orn16, K17 conjugated to (2-[2-(2-Amino-ethoxy)-ethoxy]-acetyl)2-(γ-Glu)-CO-(CH2)16-CO2H, Aib20, D-Glu24, αMeY25, C-terminal amide (NH2)
B7: Example 16 (peptide)
peptide: H[Aib]EGTFTSDYSILLDKK([AEEA-AEEA-γGlu-C20 diacid])AQ[Aib]AFIEYLIE[Aib]GPSSGAPPPS-NH2
modifications: N-terminus assumed
SMILES: CC[C@H](C)[C@H](NC(=O)[C@H](Cc1ccccc1)NC(=O)[C@H](C)NC(=O)C(C)(C)NC(=O)[C@H](CCC(N)=O)NC(=O)[C@H](C)NC(=O)[C@H](CCCCNC(=O)COCCOCCNC(=O)COCCOCCNC(=O)CC[C@H](NC(=O)CCCCCCCCCCCCCCCCCCC(=O)O)C(=O)O)NC(=O)[C@H](CCCCN)NC(=O)[C@H](CC(=O)O)NC(=O)[C@H](CC(C)C)NC(=O)[C@H](CC(C)C)NC(=O)[C@@H](NC(=O)[C@H](CO)NC(=O)[C@H](Cc1ccc(O)cc1)NC(=O)[C@H](CC(=O)O)NC(=O)[C@H](CO)NC(=O)[C@@H](NC(=O)[C@H](Cc1ccccc1)NC(=O)[C@@H](NC(=O)CNC(=O)[C@H](CCC(=O)O)NC(=O)C(C)(C)NC(=O)[C@@H](N)Cc1c[nH]cn1)[C@@H](C)O)[C@@H](C)O)[C@@H](C)CC)C(=O)N[C@@H](CCC(=O)O)C(=O)N[C@@H](Cc1ccc(O)cc1)C(=O)N[C@@H](CC(C)C)C(=O)N[C@H](C(=O)N[C@@H](CCC(=O)O)C(=O)NC(C)(C)C(=O)NCC(=O)N1CCC[C@H]1C(=O)N[C@@H](CO)C(=O)N[C@@H](CO)C(=O)NCC(=O)N[C@@H](C)C(=O)N1CCC[C@H]1C(=O)N1CCC[C@H]1C(=O)N1CCC[C@H]1C(=O)N[C@@H](CO)C(N)=O)[C@@H](C)CC
B8: Example 17 (peptide)
peptide: H[Aib]EGTFTSDYSILLDKIAQK([AEEA-AEEA-γGlu-C20 diacid])AFIEYLLE[Aib]GPSSG-NH2
modifications: N-terminus assumed
SMILES: CC[C@H](C)[C@H](NC(=O)[C@H](CCCCN)NC(=O)[C@H](CC(=O)O)NC(=O)[C@H](CC(C)C)NC(=O)[C@H](CC(C)C)NC(=O)[C@@H](NC(=O)[C@H](CO)NC(=O)[C@H](Cc1ccc(O)cc1)NC(=O)[C@H](CC(=O)O)NC(=O)[C@H](CO)NC(=O)[C@@H](NC(=O)[C@H](Cc1ccccc1)NC(=O)[C@@H](NC(=O)CNC(=O)[C@H](CCC(=O)O)NC(=O)C(C)(C)NC(=O)[C@@H](N)Cc1c[nH]cn1)[C@@H](C)O)[C@@H](C)O)[C@@H](C)CC)C(=O)N[C@@H](C)C(=O)N[C@@H](CCC(N)=O)C(=O)N[C@@H](CCCCNC(=O)COCCOCCNC(=O)COCCOCCNC(=O)CC[C@H](NC(=O)CCCCCCCCCCCCCCCCCCC(=O)O)C(=O)O)C(=O)N[C@@H](C)C(=O)N[C@@H](Cc1ccccc1)C(=O)N[C@H](C(=O)N[C@@H](CCC(=O)O)C(=O)N[C@@H](Cc1ccc(O)cc1)C(=O)N[C@@H](CC(C)C)C(=O)N[C@@H](CC(C)C)C(=O)N[C@@H](CCC(=O)O)C(=O)NC(C)(C)C(=O)NCC(=O)N1CCC[C@H]1C(=O)N[C@@H](CO)C(=O)N[C@@H](CO)C(=O)NCC(N)=O)[C@@H](C)CC
B9: Example 14 (peptide)
peptide: Y[Aib]EGTFTSDYSILLDKIAQKEFIQYLLE[Aib]GPSSGAPPPS-NH2
modifications: not fully specified (residue 20)
B10: Example 15 (peptide)
peptide: H[Aib]EGTFTSDYSILLDKKAQ[Aib]AFIEYLLE[Aib]GPSSGAPPPS-NH2
modifications: not fully specified (residue 17)
B11: Example 304 (peptide)
peptide: YXEGTFTSDYSIXLDKKAQXEFIEYLIEGGPSSG
modifications: Aib2, αMeL13, K17 conjugated to (2-[2-(2-Amino-ethoxy)-ethoxy]-acetyl)2-(γ-Glu)-CO-(CH2)16-CO2H, Aib20, C-terminal amide (NH2)
B12: Example 306 (peptide)
peptide: B11 peptide with E28A
modifications: Aib2, αMeL13, K17 conjugated to (2-[2-(2-Amino-ethoxy)-ethoxy]-acetyl)2-(γ-Glu)-CO-(CH2)16-CO2H, Aib20, C-terminal amide (NH2)

Legend:
Experiment in all cases: cell-based or functional assay
human GLP-1 receptor [1] = molecular target: human GLP-1 receptor (human, UniProt P43220 24-463)
human GIP receptor = molecular target: T1, human GIP receptor
human GLP-1 receptor [2] = molecular target: human GLP-1 receptor (human, UniProt P43220 24-463); remark: listed apart in the source

| Binder | hGLP1R GTPgS % Top (human GLP-1 receptor [1]) | hGLP1R GTPgS Rel EC50 (human GLP-1 receptor [1]) | hGIPR cAMP EC50 ratio (human GIP receptor) | hGIPR cAMP Rel EC50 (human GIP receptor) | hGLP1R cAMP EC50 ratio (human GLP-1 receptor [2]) | hGLP1R cAMP Rel EC50 (human GLP-1 receptor [2]) |
| --- | --- | --- | --- | --- | --- | --- |
| B1 | 57.3% | 1.03 nM |  |  |  |  |
| B2 |  |  | 0.18 | 1.05 nM | 0.0133 | 5.39 nM |
| B3 |  |  | 0.275 | 0.61 nM | 0.589 | 0.0945 nM |
| B4 |  |  | 0.436 | 0.386 nM | 0.532 | 0.104 nM |
| B5 | 95.4% | 0.421 nM |  |  |  |  |
| B6 | 91.3% | 0.196 nM |  |  |  |  |
| B7 |  |  | 0.157 | 0.975 nM | 1.43 | 0.0437 nM |
| B8 |  |  | 0.0257 | 5.81 nM | 0.398 | 0.152 nM |
| B9 |  |  | 0.545 | 0.284 nM | 0.0306 | 1.87 nM |
| B10 |  |  | 0.273 | 0.613 nM | 1.65 | 0.0336 nM |
| B11 | 77.1% | 0.561 nM |  |  |  |  |
| B12 | 76.1% | 0.378 nM |  |  |  |  |
